In article PMC5696618 (Journal of biomolecular screening, 2016):
Like-named read-outs stand apart in the source and are kept apart here.

B1: mouse EAG1 PAS protein (residues 1-137) (domain or fragment, UniProt Q60603 1-137, looked up)
chain: MTMAGGRRGLVAPQNTFLENIVRRSNDTNFVLGNAQIVDWPIVYSNDGFCKLSGYHRAEVMQKSSACSFMYGELTDKDTVEKVRQTFENYEMNSFEILMYKKNRTPVWFFVKIAPIRNEQDKVVLFLCTFSDITAFK
B2: fluorescein-labeled mEAG1 PAS (F-PAS) (domain or fragment, mouse, UniProt Q60603 1-137, looked up)
chain: B1 chain
modifications: fluorescein (fluorescein 5-maleimide) on accessible cysteine residues; fluorescein to protein molar ratio typically 3 or 4
B3: mouse CNBh domain (residues 552-724) (domain or fragment, UniProt Q60603 552-724, looked up)
chain: TEKVLQICPKDMRADICVHLNRKVFKEHPAFRLASDGCLRALAMEFQTVHCAPGDLIYHAGESVDSLCFVVSGSLEVIQDDEVVAILGKGDVFGDVFWKEATLAQSCANVRALTYCDLHVIKRDALQKVLEFYTAFSHSFSRNLILTYNLRKRIVFRKISDVKREEEERMKRK

Key:
hERG PAS domain = hERG PAS domain (Homo sapiens, UniProt Q12809); assay: Thermal shift assay; assay type: binding; conditions: for Shift in Tm of hERG PAS protein: dose response, compound solubility issues limited this study
Sequence of hERG PAS domain (Q12809 1-135): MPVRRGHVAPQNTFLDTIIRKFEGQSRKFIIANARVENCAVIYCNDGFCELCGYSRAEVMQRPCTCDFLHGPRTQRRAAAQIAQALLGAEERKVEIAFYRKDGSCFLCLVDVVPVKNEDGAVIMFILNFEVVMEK

[1] = molecular target: B3; assay: ITC
[2] = molecular target: B3; assay: ITC; remark: listed apart in the source
[3] = molecular target: B3; assay: ITC; remark: listed apart in the source
[4] = molecular target: B3; assay: fluorescence polarisation
[5] = molecular target: B3; assay: fluorescence polarisation; remark: listed apart in the source
[6] = molecular target: B3; assay: fluorescence polarisation; remark: listed apart in the source
[7] = molecular target: B3; assay: fluorescence polarisation; remark: listed apart in the source
[8] = molecular target: B3; assay: fluorescence polarisation; remark: listed apart in the source
[9] = molecular target: B1; assay: ITC
[10] = molecular target: B1; assay: ITC; remark: listed apart in the source
[11] = molecular target: B1; assay: ITC; remark: listed apart in the source

Molecule: Oc1ccc(C(c2ccc(O)cc2)(C(F)(F)F)C(F)(F)F)cc1 [Bisphenol AF]
- Decrease in Tm of hERG PAS protein (hERG PAS domain; human, 200 µM, pH 7.5): at least 4.5 °C

Molecule: CC(C)(c1ccc(O)cc1)c1ccc(O)cc1 [Bisphenol A]
- Shift in Tm of hERG PAS protein (hERG PAS domain): No shift

Molecule: Oc1ccc(Cc2ccc(O)cc2)cc1 [Bisphenol F]
- Shift in Tm of hERG PAS protein (hERG PAS domain): No shift

Molecule: CC(C)(C)c1cc(S)cc(C(C)(C)C)c1O [ST057196]
- Decrease in Tm of hERG PAS protein (hERG PAS domain; on addition of 50 µM of compound): more than 18 °C

Molecule: B1
- Kd [1]: 3.3 µM
- Kd [2]: 1.1 µM
- Kd [3]: 2.1 ± 0.8 µM

Molecule: B2
- Kd [4]: 3.6 ± 1.2 µM
- Kd [5]: 1.8 ± 0.56 µM
- Kd [6]: 2.4 ± 0.67 µM
- Kd [7]: 2.3 ± 0.93 µM
- Kd [8]: 3.1 ± 1.1 µM

Molecule: B3
- stoichiometry N [9]: 0.77
- stoichiometry N [10]: 1.2
- stoichiometry N [11]: 1.3 ± 0.27
